Laboratory results as given in PMC4177983.

Target: SF162 soluble Env gp140 trimer (HIV-1 isolate SF162 (clade B))
Experiment: SPR; 1273 RUs of SF162 gp140 trimer amine-coupled on a CM5 chip; dual injection, 3 µM 4E10 Fv flowed 5 minutes before and during 10 nM Fab b12 or 447-52D; HBS-EP+, 25°C

4E10 Fv
response bound at 3 µM 4E10 Fv: 90 RUs
